# Laboratory results from IntAct's records for PubMed 15457209.
# B1: Rab GTPase-binding effector protein 1 (Homo sapiens), Q15276 (parent)
# chain: MAQPGPASQPDVSLQQRVAELEKINAEFLRAQQQLEQEFNQKRAKFKELYLAKEEDLKRQNAVLQAAQDDLGHLRTQLWEAQAEMENIKAIATVSENTKQEAIDEVKRQWREEVASLQAVMKETVRDYEHQFHLRLEQERTQWAQYRESAEREIADLRRRLSEGQEEENLENEMKKAQEDAEKLRSVVMPMEKEIAALKDKLTEAEDKIKELEASKVKELNHYLEAEKSCRTDLEMYVAVLNTQKSVLQEDAEKLRKELHEVCHLLEQERQQHNQLKHTWQKANDQFLESQRLLMRDMQRMEIVLTSEQLRQVEELKKKDQEDDEQQRLNKRKDHKKADVEEEIKIPVVCALTQEESSAQLSNEEEHLDSTRGSVHSLDAGLLLPSGDPFSKSDNDMFKDGLRRAQSTDSLGTSGSLQSKALGYNYKAKSAGNLDESDFGPLVGADSVSENFDTASLGSLQMPSGFMLTKDQERAIKAMTPEQEETASLLSSVTQGMESAYVSPSGYRLVSETEWNLLQKEVHNAGNKLGRRCDMCSNYEKQLQGIQIQEAETRDQVKKLQLMLRQANDQLEKTMKDKQELEDFIKQSSEDSSHQISALVLRAQASEILLEELQQGLSQAKRDVQEQMAVLMQSREQVSEELVRLQKDNDSLQGKHSLHVSLQQAEDFILPDTTEALRELVLKYREDIINVRTAADHVEEKLKAEILFLKEQIQAEQCLKENLEETLQLEIENCKEEIASISSLKAELERIKVEKGQLESTLREKSQQLESLQEIKISLEEQLKKETAAKATVEQLMFEEKNKAQRLQTELDVSEQVQRDFVKLSQTLQVQLERIRQADSLERIRAILNDTKLTDINQLPET
# partner: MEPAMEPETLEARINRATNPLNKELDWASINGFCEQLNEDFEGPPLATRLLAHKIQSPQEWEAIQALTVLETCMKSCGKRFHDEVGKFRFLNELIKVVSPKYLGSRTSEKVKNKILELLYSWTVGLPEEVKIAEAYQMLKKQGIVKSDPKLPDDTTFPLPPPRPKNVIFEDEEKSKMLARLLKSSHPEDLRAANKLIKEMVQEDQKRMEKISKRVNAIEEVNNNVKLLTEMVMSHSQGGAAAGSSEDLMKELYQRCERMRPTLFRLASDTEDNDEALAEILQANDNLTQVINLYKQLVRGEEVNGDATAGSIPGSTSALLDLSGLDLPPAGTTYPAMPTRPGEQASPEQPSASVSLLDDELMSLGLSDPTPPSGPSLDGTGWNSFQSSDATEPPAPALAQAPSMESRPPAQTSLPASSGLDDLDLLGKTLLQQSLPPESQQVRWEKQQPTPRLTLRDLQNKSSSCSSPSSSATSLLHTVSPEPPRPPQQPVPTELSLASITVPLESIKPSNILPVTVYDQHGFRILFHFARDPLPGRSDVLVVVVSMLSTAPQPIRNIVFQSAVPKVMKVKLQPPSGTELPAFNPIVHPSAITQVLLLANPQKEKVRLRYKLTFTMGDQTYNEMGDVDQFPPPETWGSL
# Variants of: B1
# Conditions: with gga1_human GGA1, Q9UJY5
row,Variant,effect of a mutation on the interaction
1,Q561A,decreasing interaction
2,M563R,decreasing interaction
3,Q566A,decreasing interaction
4,Q566R,decreasing interaction
5,N568R,decreasing interaction
